{"source": "paper PMC6325239", "about": "(Nature Communications, 2019)", "binders": {"B1": {"name": "Syb2 linker region peptide (residues 75–93 of Syb2) (peptide)", "peptide": "SQFETSAAKLKRKYWWKNL", "notes": "synaptobrevin-2 (Syb2), residues 75-93; also called LR; Syb2 peptide; source: synthetic peptide (Scilight Biotechnology, Beijing)"}}, "molecular_target": "T1, Munc13-1 MUN domain (residues 933–1407, EF, 1453–1531) (rat, UniProt Q62768 933-1407; Q62768 1453-1531)", "T1 construct": "Munc13-1, rat, residues 933-1407; linker that replaces residues 1408-1452; Munc13-1, rat, residues 1453-1531; Used in native PAGE, crystallization and, as far as told, fluorescence anisotropy; also called the MUN domain; source: E. coli BL21 DE3, pGEX-KG, purified (glutathione Sepharose, thrombin, SEC, ion exchange)", "test": "crystal structure; MUN crystals (20% PEG 3350, 0.1 M MES pH 5.8–6.3, 0.2 M Mg(NO3)2, 4 °C) soaked with the LR peptide at 1:4 (MUN:peptide); 2.8 Å", "conditions": "both partners purified"}
{"binder": "B1", "values": [{"measurement": "binding result", "result": "binds"}]}
